Assays:
Grb2 SH2 = Grb2 SH2 (UniProt P62993); assay: SH2 binding enrichment of the phosphorylated peptide, bacterial display (enrichment ratio); higher = better substrate or ligand; peptides without Tyr show the background
SHP2-C SH2 = assay: as above
c-Src SH2 = assay: as above
AncSZ = assay: phosphorylation enrichment, bacterial display (enrichment ratio); higher = better substrate or ligand; peptides without Tyr show the background
EPHB2 = EPHB2 (UniProt P29323); assay: as above
MERTK = MERTK (UniProt Q12866); assay: as above
MERTK, sequence (Q12866 whole entry, looked up): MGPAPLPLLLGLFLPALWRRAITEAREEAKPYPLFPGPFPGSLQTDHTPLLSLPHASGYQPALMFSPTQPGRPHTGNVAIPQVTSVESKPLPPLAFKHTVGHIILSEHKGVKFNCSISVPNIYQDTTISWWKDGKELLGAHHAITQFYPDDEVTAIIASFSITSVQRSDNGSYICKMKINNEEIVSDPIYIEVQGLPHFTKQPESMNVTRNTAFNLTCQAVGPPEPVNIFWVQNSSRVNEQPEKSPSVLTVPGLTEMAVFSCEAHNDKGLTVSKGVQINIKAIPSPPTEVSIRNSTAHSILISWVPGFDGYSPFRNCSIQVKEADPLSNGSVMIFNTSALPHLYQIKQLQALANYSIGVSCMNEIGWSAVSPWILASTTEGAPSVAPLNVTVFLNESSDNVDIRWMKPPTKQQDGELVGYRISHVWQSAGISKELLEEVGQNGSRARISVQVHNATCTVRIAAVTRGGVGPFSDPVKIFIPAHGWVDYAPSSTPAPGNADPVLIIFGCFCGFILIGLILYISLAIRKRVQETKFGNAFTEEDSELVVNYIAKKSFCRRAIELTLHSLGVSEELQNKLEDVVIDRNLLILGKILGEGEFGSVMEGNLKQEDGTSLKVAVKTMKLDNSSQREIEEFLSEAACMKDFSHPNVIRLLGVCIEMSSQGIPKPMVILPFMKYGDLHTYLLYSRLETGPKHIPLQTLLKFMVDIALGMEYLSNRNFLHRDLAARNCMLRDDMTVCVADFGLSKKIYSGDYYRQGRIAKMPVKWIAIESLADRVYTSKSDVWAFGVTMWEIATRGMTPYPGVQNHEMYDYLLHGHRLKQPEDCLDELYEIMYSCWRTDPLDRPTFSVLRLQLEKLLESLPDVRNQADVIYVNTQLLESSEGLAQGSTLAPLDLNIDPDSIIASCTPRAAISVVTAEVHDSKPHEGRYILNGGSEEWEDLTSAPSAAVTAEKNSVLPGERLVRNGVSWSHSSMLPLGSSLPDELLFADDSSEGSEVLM

FGFR3 = FGFR3 (UniProt P22607); assay: as above
FGFR3, sequence (P22607 whole entry, looked up): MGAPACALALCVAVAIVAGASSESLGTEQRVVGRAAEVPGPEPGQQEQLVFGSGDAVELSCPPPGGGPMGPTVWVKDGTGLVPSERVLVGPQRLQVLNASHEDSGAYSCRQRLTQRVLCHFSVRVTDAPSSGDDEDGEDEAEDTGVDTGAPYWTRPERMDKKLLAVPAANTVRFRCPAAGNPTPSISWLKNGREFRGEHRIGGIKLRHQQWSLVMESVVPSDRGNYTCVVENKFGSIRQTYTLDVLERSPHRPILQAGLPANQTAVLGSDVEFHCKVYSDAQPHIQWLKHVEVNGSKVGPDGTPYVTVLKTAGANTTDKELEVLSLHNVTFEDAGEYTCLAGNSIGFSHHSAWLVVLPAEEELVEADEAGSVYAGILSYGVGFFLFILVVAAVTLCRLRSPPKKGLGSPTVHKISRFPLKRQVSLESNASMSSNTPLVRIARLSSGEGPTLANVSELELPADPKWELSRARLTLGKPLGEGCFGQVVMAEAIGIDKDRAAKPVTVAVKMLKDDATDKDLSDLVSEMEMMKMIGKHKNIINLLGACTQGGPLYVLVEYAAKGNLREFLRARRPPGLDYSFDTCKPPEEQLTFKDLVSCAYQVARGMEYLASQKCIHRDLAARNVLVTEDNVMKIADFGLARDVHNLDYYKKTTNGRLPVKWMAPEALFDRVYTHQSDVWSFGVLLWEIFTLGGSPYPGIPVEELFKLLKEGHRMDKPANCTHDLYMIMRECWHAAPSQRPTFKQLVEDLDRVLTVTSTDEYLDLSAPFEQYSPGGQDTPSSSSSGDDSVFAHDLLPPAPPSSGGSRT

Jak2 = Jak2 (UniProt O60674); assay: as above
Fyn = Fyn (UniProt P06241); assay: as above
FGFR1 = FGFR1 (UniProt P11362); assay: as above
FGFR1, sequence (P11362 whole entry, looked up): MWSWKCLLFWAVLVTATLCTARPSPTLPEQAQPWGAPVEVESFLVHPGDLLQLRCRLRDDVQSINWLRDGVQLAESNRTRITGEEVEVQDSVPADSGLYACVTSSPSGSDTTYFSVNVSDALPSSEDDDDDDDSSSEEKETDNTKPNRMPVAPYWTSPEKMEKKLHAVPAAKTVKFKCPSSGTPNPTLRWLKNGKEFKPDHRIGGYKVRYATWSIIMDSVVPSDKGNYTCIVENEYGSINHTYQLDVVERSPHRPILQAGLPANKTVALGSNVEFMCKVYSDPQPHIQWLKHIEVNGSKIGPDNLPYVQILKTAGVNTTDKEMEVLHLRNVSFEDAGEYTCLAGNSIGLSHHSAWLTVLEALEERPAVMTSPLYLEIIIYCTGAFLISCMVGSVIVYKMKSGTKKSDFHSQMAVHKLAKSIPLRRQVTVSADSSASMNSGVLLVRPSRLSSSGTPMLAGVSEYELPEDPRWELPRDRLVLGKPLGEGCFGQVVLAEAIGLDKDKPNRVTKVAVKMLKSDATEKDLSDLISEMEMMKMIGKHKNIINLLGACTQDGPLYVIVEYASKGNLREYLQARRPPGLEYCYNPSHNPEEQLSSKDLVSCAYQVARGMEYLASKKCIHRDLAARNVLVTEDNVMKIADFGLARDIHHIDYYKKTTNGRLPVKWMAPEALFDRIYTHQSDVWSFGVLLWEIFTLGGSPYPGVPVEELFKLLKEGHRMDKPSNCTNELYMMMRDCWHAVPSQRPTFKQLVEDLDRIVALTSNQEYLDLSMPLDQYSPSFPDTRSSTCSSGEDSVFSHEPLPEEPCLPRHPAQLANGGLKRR

Fer (mouse) = assay: as above
EPHB1 = EPHB1 (UniProt P54762); assay: as above
EPHB1, sequence (P54762 whole entry, looked up): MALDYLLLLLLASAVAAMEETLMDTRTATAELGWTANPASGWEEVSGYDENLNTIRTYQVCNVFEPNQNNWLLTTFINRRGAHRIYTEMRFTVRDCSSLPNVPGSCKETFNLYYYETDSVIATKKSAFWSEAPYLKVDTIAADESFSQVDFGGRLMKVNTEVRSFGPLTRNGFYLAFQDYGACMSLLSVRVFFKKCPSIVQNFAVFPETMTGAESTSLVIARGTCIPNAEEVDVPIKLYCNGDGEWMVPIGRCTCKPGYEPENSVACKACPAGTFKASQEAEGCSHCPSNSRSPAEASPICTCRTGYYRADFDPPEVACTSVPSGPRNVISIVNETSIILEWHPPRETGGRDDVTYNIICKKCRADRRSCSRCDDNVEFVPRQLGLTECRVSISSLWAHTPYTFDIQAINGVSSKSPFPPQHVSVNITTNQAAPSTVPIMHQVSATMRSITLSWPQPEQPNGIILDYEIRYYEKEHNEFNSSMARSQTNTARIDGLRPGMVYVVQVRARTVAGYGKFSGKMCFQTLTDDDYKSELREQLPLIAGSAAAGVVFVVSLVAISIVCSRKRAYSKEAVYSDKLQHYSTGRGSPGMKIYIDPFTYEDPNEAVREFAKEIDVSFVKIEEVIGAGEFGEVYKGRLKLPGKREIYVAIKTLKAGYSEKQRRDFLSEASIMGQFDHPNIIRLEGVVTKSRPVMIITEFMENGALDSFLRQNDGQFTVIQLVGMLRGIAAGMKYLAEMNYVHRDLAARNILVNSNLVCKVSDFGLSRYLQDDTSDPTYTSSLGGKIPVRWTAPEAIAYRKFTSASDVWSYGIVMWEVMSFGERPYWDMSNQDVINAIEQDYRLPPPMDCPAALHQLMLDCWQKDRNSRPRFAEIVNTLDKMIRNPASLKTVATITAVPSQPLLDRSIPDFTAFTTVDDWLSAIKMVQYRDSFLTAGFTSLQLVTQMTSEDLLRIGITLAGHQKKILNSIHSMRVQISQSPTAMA

Fes = Fes (UniProt P07332); assay: as above
Fes, sequence (P07332 whole entry, looked up): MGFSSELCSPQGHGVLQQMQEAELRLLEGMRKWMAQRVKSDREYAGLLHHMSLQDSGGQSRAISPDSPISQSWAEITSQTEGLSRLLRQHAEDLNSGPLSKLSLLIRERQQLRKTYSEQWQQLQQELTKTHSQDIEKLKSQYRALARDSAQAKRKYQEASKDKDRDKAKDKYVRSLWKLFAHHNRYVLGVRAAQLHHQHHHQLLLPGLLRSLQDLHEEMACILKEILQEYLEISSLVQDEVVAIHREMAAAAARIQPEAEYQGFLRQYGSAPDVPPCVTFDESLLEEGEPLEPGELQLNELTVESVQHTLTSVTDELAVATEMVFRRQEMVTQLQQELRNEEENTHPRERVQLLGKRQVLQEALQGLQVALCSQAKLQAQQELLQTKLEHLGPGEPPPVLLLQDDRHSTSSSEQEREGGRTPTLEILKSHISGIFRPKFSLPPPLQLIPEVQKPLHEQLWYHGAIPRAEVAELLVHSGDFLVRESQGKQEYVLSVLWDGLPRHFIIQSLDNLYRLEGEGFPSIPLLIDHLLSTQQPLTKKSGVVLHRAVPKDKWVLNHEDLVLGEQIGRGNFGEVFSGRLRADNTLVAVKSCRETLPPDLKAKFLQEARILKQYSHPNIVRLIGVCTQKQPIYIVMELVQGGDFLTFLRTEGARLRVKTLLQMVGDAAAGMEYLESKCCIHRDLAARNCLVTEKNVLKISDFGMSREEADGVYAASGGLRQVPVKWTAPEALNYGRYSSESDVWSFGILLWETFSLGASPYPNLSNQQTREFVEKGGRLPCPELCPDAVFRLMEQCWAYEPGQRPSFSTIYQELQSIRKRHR

Hck = Hck (UniProt P08631); assay: as above
Hck, sequence (P08631 whole entry, looked up): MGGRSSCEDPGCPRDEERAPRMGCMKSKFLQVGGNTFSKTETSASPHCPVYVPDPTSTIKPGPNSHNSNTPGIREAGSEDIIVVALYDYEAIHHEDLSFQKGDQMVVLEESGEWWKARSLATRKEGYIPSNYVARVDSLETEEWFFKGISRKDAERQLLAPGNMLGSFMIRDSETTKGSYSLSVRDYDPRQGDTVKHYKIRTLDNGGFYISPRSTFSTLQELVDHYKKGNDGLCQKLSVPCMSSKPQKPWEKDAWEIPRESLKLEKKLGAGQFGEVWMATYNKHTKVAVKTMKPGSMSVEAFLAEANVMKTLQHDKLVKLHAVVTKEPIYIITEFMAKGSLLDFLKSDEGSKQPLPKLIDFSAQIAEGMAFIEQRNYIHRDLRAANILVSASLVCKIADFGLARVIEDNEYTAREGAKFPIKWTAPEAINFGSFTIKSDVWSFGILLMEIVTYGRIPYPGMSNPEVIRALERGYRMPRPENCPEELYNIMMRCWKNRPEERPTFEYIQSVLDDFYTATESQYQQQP

c-Abl (mouse) = assay: as above
c-Src = assay: as above
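Throughout, for SH2 binding enrichment of the phosphorylated peptide, bacterial display: peptide library displayed on the E. coli surface as eCPX fusions, selected cells deep-sequenced, score is each peptide's frequency after selection divided by its frequency in the input.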
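Throughout, for phosphorylation enrichment, bacterial display: 11-residue human phosphosite peptides and single-mutation variants displayed on the E. coli surface, counted by deep sequencing, each peptide's frequency after selection divided by its frequency in the unselected input library; frequency after pTyr selection over input frequency; kinase dosed for 20-30% of maximal phosphorylation in three min.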

Row | SH2 binding enrichment (Grb2 SH2) | SH2 binding enrichment (SHP2-C SH2) | SH2 binding enrichment (c-Src SH2) | Sequence | phosphorylation enrichment (AncSZ) | phosphorylation enrichment (EPHB2) | phosphorylation enrichment (MERTK) | phosphorylation enrichment (FGFR3) | phosphorylation enrichment (Jak2) | phosphorylation enrichment (Fyn) | phosphorylation enrichment (FGFR1) | phosphorylation enrichment (Fer (mouse)) | phosphorylation enrichment (EPHB1) | phosphorylation enrichment (Fes) | phosphorylation enrichment (Hck) | phosphorylation enrichment (c-Abl (mouse)) | phosphorylation enrichment (c-Src)
1 | 1.1 | 0.588 | 0.753 | ETDSEYVKLSK [C7orf57_Y70_A74S] | 1.01 | 0.63 | 0.435 | 0.667 | 1.01 | 0.533 | 0.516 | 0.499 | 0.524 | 1.13 | 0.604 | 0.695 | 0.451
2 | 1.06 | 0.765 | 0.562 | SLNEGYARDFD [FBP1_Y216] | 1.06 | 0.573 | 0.485 | 0.617 | 0.908 | 0.639 | 0.461 | 0.554 | 0.505 | 0.94 | 0.547 | 0.767 | 0.44
3 | 0.995 | 0.594 | 0.491 | GGDAVYTNGAI [RFX2_Y82] | 0.654 | 0.486 | 0.359 | 0.532 | 0.494 | 1.3 | 0.484 | 0.5 | 0.425 | 0.638 | 1.34 | 0.443 | 1.09
4 | 0.985 | 1.24 | 0.649 | TSYSGYRYHRH [NKAPL_Y94] | 0.52 | 0.42 | 0.382 | 0.433 | 0.439 | 0.891 | 0.407 | 0.418 | 0.536 | 0.501 | 0.628 | 0.46 | 0.555
5 | 1.02 | 1.3 | 0.896 | SRVNKYSTAFG [GJB3_Y16_G12R] | 0.571 | 0.347 | 0.406 | 0.489 | 0.644 | 0.371 | 0.383 | 0.499 | 0.426 | 0.633 | 0.344 | 0.584 | 0.383
6 | 0.92 | 0.685 | 0.428 | PQGVGYPPQQQ [EP300_Y2219] | 0.962 | 0.619 | 0.619 | 0.871 | 0.915 | 0.573 | 0.897 | 0.46 | 0.44 | 1.17 | 0.612 | 0.655 | 0.579
7 | 0.718 | 0.479 | 0.864 | FEEDSYSHIMA [FDPS_Y388_YF] | 1.33 | 0.593 | 0.458 | 1.01 | 1.06 | 0.634 | 1.01 | 1.07 | 0.551 | 1.23 | 0.972 | 0.671 | 0.721
8 | 0.822 | 0.682 | 0.584 | NVFGNYNQQPS [HNRNPA2B1_Y306_D302V] | 0.492 | 0.375 | 0.375 | 0.471 | 0.687 | 0.401 | 0.356 | 0.315 | 0.468 | 0.713 | 0.484 | 0.674 | 0.384
9 | 0.798 | 0.55 | 0.452 | QQLDEYQELLD [LMNA_Y359] | 1.63 | 0.757 | 0.6 | 1.18 | 1.3 | 0.669 | 0.615 | 0.598 | 0.776 | 1.57 | 0.684 | 1.01 | 0.726
10 | 0.824 | 0.691 | 0.485 | RDSQIYAVDYE [MRPS34_Y34_L33I] | 1.86 | 1.94 | 4.3 | 1.37 | 0.977 | 7.43 | 1.21 | 1.89 | 2.44 | 1.56 | 4.23 | 0.684 | 4.24
11 | 0.73 | 0.833 | 14.3 | ASTHVYQIMNH [ITK_Y588] | 0.703 | 0.487 | 1.61 | 0.423 | 0.55 | 1.39 | 0.508 | 1.34 | 0.991 | 0.722 | 2 | 0.623 | 2.58
12 | 0.723 | 0.973 | 0.421 | FADTAYNYRHG [PAH_Y166_I164T] | 0.672 | 0.362 | 0.35 | 0.601 | 0.509 | 0.456 | 0.899 | 0.552 | 0.533 | 0.831 | 0.514 | 0.46 | 0.449
13 | 0.826 | 0.587 | 0.5 | QVMDGYPIPIG [MMP14_Y353_M355I] | 0.686 | 0.755 | 0.482 | 0.572 | 0.554 | 0.592 | 0.406 | 0.56 | 0.596 | 0.715 | 0.566 | 0.46 | 0.3
14 | 1.76 | 1.76 | 2.11 | CTIIHYNYMCN [TP53_Y234_T231I] | 0.963 | 0.694 | 0.419 | 0.798 | 0.829 | 0.588 | 0.583 | 0.633 | 0.723 | 1 | 0.521 | 0.534 | 0.452
15 | 0.897 | 0.616 | 1.01 | SQQTYCRVSNM [ABCD1_Y181_Y181C] | 0.799 | 1.98 | 0.738 | 0.683 | 0.623 | 0.751 | 0.587 | 0.526 | 3.76 | 0.88 | 1.41 | 0.851 | 0.718
16 | 1.09 | 0.778 | 0.498 | QKMLDYLKEKK [RYR2_Y3780] | 0.9 | 0.345 | 0.398 | 0.673 | 0.579 | 0.542 | 0.553 | 0.442 | 0.401 | 1.1 | 0.491 | 0.533 | 0.513
17 | 1.04 | 1.01 | 0.765 | CSHKFYGKQCC [ADAMTS16_Y1211] | 0.607 | 0.477 | 0.396 | 0.499 | 0.513 | 0.346 | 0.391 | 0.448 | 0.498 | 0.673 | 0.415 | 0.505 | 0.268

Row | SH2 binding enrichment (Grb2 SH2) | SH2 binding enrichment (SHP2-C SH2) | SH2 binding enrichment (c-Src SH2) | Sequence | phosphorylation enrichment (AncSZ) | phosphorylation enrichment (EPHB2) | phosphorylation enrichment (MERTK) | phosphorylation enrichment (FGFR3) | phosphorylation enrichment (Jak2) | phosphorylation enrichment (Fyn) | phosphorylation enrichment (FGFR1) | phosphorylation enrichment (Fer (mouse)) | phosphorylation enrichment (EPHB1) | phosphorylation enrichment (Fes) | phosphorylation enrichment (Hck) | phosphorylation enrichment (c-Abl (mouse)) | phosphorylation enrichment (c-Src)
18 | 0.88 | 0.594 | 0.896 | RGDCTYAPLLG [AR_Y269_M268T] | 1.21 | 9.28 | 7.45 | 1.26 | 1.18 | 8.94 | 1.42 | 1.33 | 8.38 | 1.46 | 9.33 | 2.55 | 6.35
19 | 1.27 | 1.01 | 0.925 | SLLLSYYLIKW [NUP160_Y773_P768S] | 1.12 | 0.539 | 0.649 | 2.09 | 2.23 | 0.456 | 2.51 | 0.47 | 0.673 | 1.24 | 0.499 | 0.882 | 0.587
20 | 0.461 | 2.61 | 0.583 | VEYAKYGSLRG [RET_Y809] | 0.544 | 0.409 | 0.473 | 0.47 | 0.335 | 1.21 | 0.349 | 0.395 | 0.441 | 0.552 | 0.758 | 0.824 | 1.56
21 | 0.704 | 0.926 | 0.455 | QEALEYFMKQI [PIK3CA_Y1038_M1043I] | 1.68 | 0.547 | 0.449 | 0.744 | 1.53 | 0.545 | 0.616 | 0.599 | 0.845 | 1.43 | 0.631 | 1.28 | 0.714
22 | 1.15 | 0.778 | 0.506 | NRLNDYIFSFD [RARS1_Y516] | 1.09 | 0.538 | 0.475 | 0.729 | 0.977 | 0.461 | 0.721 | 0.424 | 0.538 | 1.03 | 0.469 | 0.789 | 0.555
23 | 0.724 | 0.564 | 0.374 | RFGRKYKKVRF [F8_Y442_I438F] | 0.708 | 0.551 | 1.04 | 0.651 | 0.884 | 0.82 | 0.653 | 0.619 | 0.572 | 0.841 | 0.674 | 0.806 | 0.988
24 | 0.876 | 0.758 | 0.465 | EYFDGYWEYSV [ITGA2B_Y265_G267E] | 4.06 | 3.58 | 2 | 12 | 5.73 | 5.41 | 13.8 | 1.22 | 2.02 | 1.72 | 4.33 | 1.54 | 6.02
25 | 0.809 | 0.618 | 0.402 | GREAEYSDKHG [EPHB4_Y574] | 0.64 | 0.44 | 0.39 | 0.547 | 0.582 | 0.773 | 0.388 | 0.472 | 0.392 | 0.821 | 0.354 | 0.571 | 0.405
26 | 0.84 | 0.682 | 0.609 | AQQPIYVRVEG [NLRP7_Y318] | 0.967 | 4.96 | 2.46 | 0.787 | 0.965 | 2.18 | 1.12 | 0.707 | 5.88 | 0.963 | 1.74 | 1.54 | 3.6
27 | 0.664 | 0.475 | 0.38 | KDLPNYNWKSF [KISS1_Y112_N115K] | 0.655 | 0.529 | 0.455 | 0.598 | 0.918 | 0.438 | 0.418 | 0.464 | 0.532 | 0.865 | 0.439 | 0.72 | 0.588
28 | 0.938 | 0.76 | 0.605 | VGTTAYVAPEA [IRAK4_Y354_M355V] | 0.888 | 0.445 | 0.427 | 0.507 | 0.79 | 0.392 | 0.412 | 0.424 | 0.558 | 0.911 | 0.41 | 0.653 | 0.433
29 | 0.749 | 0.458 | 0.356 | ETLLFYGFRRS [POR_Y564_C566Y_YF] | 0.871 | 0.404 | 0.631 | 0.535 | 0.745 | 0.431 | 0.58 | 0.405 | 0.504 | 1.01 | 0.544 | 0.542 | 0.514
30 | 0.726 | 0.497 | 0.403 | KPPFSYNALIM [FOXG1_Y186] | 0.641 | 0.488 | 0.525 | 0.628 | 0.632 | 0.438 | 0.455 | 0.461 | 0.424 | 0.724 | 0.472 | 0.57 | 0.512
31 | 0.786 | 0.766 | 0.557 | HSREDYFECFQ [ZIM2_Y411_Q408R] | 2.12 | 1.19 | 0.721 | 6.79 | 1.58 | 0.598 | 9.83 | 0.811 | 1.83 | 1.64 | 0.907 | 1.28 | 0.91
32 | 0.855 | 0.619 | 0.566 | AEYGLYRAMVR [VSX2_Y222_G223R] | 0.814 | 3.62 | 2.38 | 0.679 | 0.75 | 9.03 | 0.577 | 0.603 | 2.89 | 0.768 | 9.69 | 7.87 | 6.94
33 | 1.16 | 0.936 | 0.945 | QGIFGYHHHMQ [UFSP2_Y287_Y290H_YF] | 0.941 | 0.781 | 0.521 | 0.792 | 1.07 | 0.395 | 0.892 | 0.779 | 0.639 | 1.04 | 0.664 | 0.652 | 0.498
